Measurements published in the DeepSol protein solubility set.

Experiment: soluble on expression in E. coli; label from the status in PepcDB or PDB records

Q: For “MGSDKIHHHHHHMYQELPPLPWLRAFDASARLGNFTLAAQELGLTPSAVSYQVRGLEATLGHKLFVRKQKSLFLTRLGQAYLPVVSKAFGDLEATTSNLFGKSAAQEITLRCLSSLNMLWLAPRLSRFQAQHPDCRLRVLSALWGETPEALQIDIDIRYGNGSWSDGEVTRLMHHEVLAVCAPALHPGPDPQAIASCPLIEVIGVTDTWHHFFALHGLAPPSSGPALKVDQSLIALELATRGMGVALIARVFAQRYLESGALVEATDLALPAREGHYIVQPEARNHFRPEVAALKDWLLQEAAQTGC”, which “soluble on expression in E. coli” value is on record?
A: Its value is “not soluble”.

Q: For “MASKTIIVMSDSHGDRDIVQAIKDKYLGQVDAIFHNGDSELNSSDPIWAGIYVVGGNCDYDTGYPDRLVTQLGTVTIAQTHGHLYHINFTWDKLDYFAQEVVADICLYGHLHRPAAWQVGQTLFMNPGSVTQPRGEINEKLYARVELTDTQIKVDYFTRDHKLYPSLSKEFKR”, which “soluble on expression in E. coli” value is on record?
A: Its value is “not soluble”.

Q: Which “soluble on expression in E. coli” value does the source give for “MGSDKIHHHHHHMATSQWRLIASICFLALTGWSTKAVSAETDKPPFYQVQWQGKSAYLLGSIHIGRADFYPLPTQIETALGKAKGLVVEVDMNKADSNALLRQYGRADKTKGLDWQSRDKQTVESMTPYCAATANVCQSIQSFAPWLQATQVNLIRYNNLGYSTDYGVDMQLMARHAALPVYQLETAESQFQLLASFDSQAQWSMVREAISTSDADLLSLIAAWRSGNEAELDSIMQEQMGGEGDTEMLEKILWRRNHVMADGIIKLMGSTEITSPLFVVVGAGHVVGDKSVVQLLEQAGAKVSACWKQTCQ” here?
A: Its value is “not soluble”.

Q: For “MGSQVQKSDEITFSDYLGLMTCVYEWADSYDSKDWDRLRKVIAPTLRIDYRSFLDKLWEAMPAEEFVGMVSSKQVLGDPTLRTQHFIGGTRWEKVSEDEVIGYHQLRVPHQRYKDTTMKEVTMKGHAHSANLHWYKKIDGVWKFAGLKPDIRWGEFDFDRIAEDGRETFGDK”, which “soluble on expression in E. coli” value is on record?
A: Its value is “soluble”.

Q: For “MVHIKKGELTQEEKELLEVIGKGTVQEAGTLLSSKNVRVNCLDENGMTPLMHAAYKGKLDMCKLLLRHGADVNCHQHEHGYTALMFAALSGNKDITWVMLEAGAETDVVNSVGRTAAQMAAFVGQHDCVTIINNFFPRERLDYYTKPQGLDKEPKLPPKLAGPLHKIITTTNLHPVKIVMLVNENPLLTEEAALNKCYRVMDLICEKCMKQRDMNEVLAMKMHYISCIFQKCINFLKDGENKLDTLIKSLLKGRASDGFPVYQEKIIRESIRKFPYCEATLLQQLVRSIAPVEIGSDPTAFSVLTQAITGQVGFVDVEFCTTCGEKGASKRCSVCKMVIYCDQTCQKTHWFTHKKICKNLKDIYEKQQLEAAKEKRQEENHGKLDVNSNCVNEEQPEAEVGISQKDSNPEDSGEGKKESLESEAELEGLQDAPAGPQVSEE”, which “soluble on expression in E. coli” value is on record?
A: Its value is “soluble”.

Q: For “MCFFLLCFLDSFRNRDTTQSDTDVIYPRDDPRASRSHQNFGFMDPPPRYEQIFKRGGGTPSVITTREAPSVTRSTGDGSLPPSYEQAALNARRESRPQLPQGTLREVPLTAIDMEHPAMSTPSSTVLDMESEITNITNHAQACVHRYDASHANEVTRTAVAVTTESPAPAQSTSNALPELEAPEGGPPGYDTISLHNETVSTR”, which “soluble on expression in E. coli” value is on record?
A: The value was “not soluble”.

Q: Which “soluble on expression in E. coli” value does the source give for “MGSDKIHHHHHHMKILVVGAGAVGGYFGARLAEKGEDVTFLVRERRFEELRAGLQVKSLHGDITCSPRLIRTGEKGTFDVILLSTKAYHLEQVLEDIEPFVATDTYILPLLNGMAHLKQLEQHFGAERVLGGLCFIESTLDGKGHIVQTSPSHHLLFGPLPGTRTDRLEELKQHLTGTAAPINYSDTITRDMWNKYLFITTFSGVTSLFRSAIGPIRSQEEGMMMIRRLATEAKEAMERQGAVFSDGIEQIQQQQIAQMDETMKSSLQRDMEKGNEVESAHLFGTLLSKDEATQVMLPAIYANLKIYRMSRKDV” here?
A: Its value is “not soluble”.

Q: With “MSLAQVEQVIQVGHLLDVRTGNYQKNKAILVEAGRISAIVDADQAPKNVQVIDLSTHYVVPGLIDMHVHLTSDPQKHGYRGLVETPTREAIFGVSAAKATLKAGFTTVRNLGAAGFADVSLRDAIDDGEIQGPRMRVAANTICITGGHCDNNLLPHIYNSRSAGVANGPDEVRAKVRENIKYGADVIKFAATGGVLSKNTDVNASQYNFEEMKALIDEAHDRGRIVAAHAHGLQGIKRAIEAGVDSIEHGSFIDDDAIKLAKKHGTYLVMDVYVSDYILSEGEKAGILPESLAKEKKVGLLQRQNFQKAVKAGVKMAYGTDAGVYTHGLNGRQFAYMVQWGMTPLQAIQAATVNAGTLLNWKNEQGQQNVGVLEVGAFADLVAVPVDPLTQEGHHHHHH” as the sequence, how does the “soluble on expression in E. coli” value read?
A: The value was “soluble”.

Q: Which “soluble on expression in E. coli” value does the source give for “MGHHHHHHSHMNTKTMRLPPRRVLTADKRKERDAFISSVTDNPPEIAKFPSPPPKLVPPPVNPISKKSSTAAAEPIGSNQLMLAGYLSHEYLTQGTLFGEQWNQARAQAESSKIKPSHTVEPAEECEPKRKRYREVANLLRSDGAQLPGIVNPAQLARFLKL” here?
A: Its value is “soluble”.
